Experimental data from the supplement of paper PMC9112550, “Optimization of the antimicrobial peptide Bac7 by deep mutational scanning” (BMC Biology, 2022).
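Further: peptides expressed intracellularly from a pBAD plasmid library in pooled LB shake-flask culture, induced with 0.3% L-arabinose, DNA abundance read by NGS, three biological replicates, DESeq2 with apeglm shrinkage.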

The sequences below were run on Escherichia coli TOP10 (assay: shrunken log2 fold change of peptide-encoding DNA abundance (4.5 h post-induction vs induction); higher = less antimicrobial activity (less host growth inhibition)). Details: time post-induction: 4.5 h; library: site-saturation at positions 5, 18, 19, 20.
With RRIRWRPPRLPRPRPRPWTIPRP the “shrunken log2 fold change” value was -0.0951. In the case of RRIRWRPPRLPRPRPRPWTNPRP, the “shrunken log2 fold change” value is reported as 0.0442. In the case of RRIRWRPPRLPRPRPRPWTPPRP, the “shrunken log2 fold change” value is reported as 0.0119. For RRIRWRPPRLPRPRPRPWVDPRP, the “shrunken log2 fold change” value was -0.119. In the case of RRIRWRPPRLPRPRPRPWVYPRP, the “shrunken log2 fold change” value is reported as -0.384. In the case of RRIRWRPPRLPRPRPRPWYIPRP, the “shrunken log2 fold change” value is reported as -0.172. RRIRWRPPRLPRPRPRPWYPPRP was tested, and the “shrunken log2 fold change” value was 0.0299. With RRIRWRPPRLPRPRPRPWYSPRP the “shrunken log2 fold change” value was -0.534. RRIRWRPPRLPRPRPRPWYTPRP was tested, and the “shrunken log2 fold change” value was -0.0512. In the case of RRIRWRPPRLPRPRPRPYCIPRP, the “shrunken log2 fold change” value is reported as -0.179. With RRIRWRPPRLPRPRPRPYCRPRP the “shrunken log2 fold change” value was -0.295. RRIRWRPPRLPRPRPRPYEGPRP was tested, and the “shrunken log2 fold change” value was -0.874. For RRIRWRPPRLPRPRPRPYGIPRP, the “shrunken log2 fold change” value was -0.00133. RRIRWRPPRLPRPRPRPYHAPRP was tested, and the “shrunken log2 fold change” value was -0.295. In the case of RRIRWRPPRLPRPRPRPYKQPRP, the “shrunken log2 fold change” value is reported as -0.0587. RRIRWRPPRLPRPRPRPYMCPRP was tested, and the “shrunken log2 fold change” value was 0.00232. With RRIRWRPPRLPRPRPRPYMEPRP the “shrunken log2 fold change” value was -0.101. For RRIRWRPPRLPRPRPRPYMVPRP, the “shrunken log2 fold change” value was -0.844. RRIRWRPPRLPRPRPRPYNKPRP was tested, and the “shrunken log2 fold change” value was -1.34. RRIRWRPPRLPRPRPRPYNPPRP was tested, and the “shrunken log2 fold change” value was -1.48. For RRIRWRPPRLPRPRPRPYNQPRP, the “shrunken log2 fold change” value was -0.807. In the case of RRIRWRPPRLPRPRPRPYPTPRP, the “shrunken log2 fold change” value is reported as -0.281. For RRIRWRPPRLPRPRPRPYQAPRP, the “shrunken log2 fold change” value was -0.0526. With RRIRWRPPRLPRPRPRPYSRPRP the “shrunken log2 fold change” value was -0.0788. For RRIRWRPPRLPRPRPRPYTYPRP, the “shrunken log2 fold change” value was -0.329. RRIRWRPPRLPRPRPRPYVMPRP was tested, and the “shrunken log2 fold change” value was -0.511. For RRIRWRPPRLPRPRPRPYVWPRP, the “shrunken log2 fold change” value was -0.0228. For RRIRWRPPRLPRPRPRPYWLPRP, the “shrunken log2 fold change” value was -0.0807. With RRIRWRPPRLPRPRPRPYWYPRP the “shrunken log2 fold change” value was -1.33. For RRIRWRPPRLPRPRPRPYYAPRP, the “shrunken log2 fold change” value was -0.195. For RRIRYRPPRLPRPRPRPAAKPRP, the “shrunken log2 fold change” value was 0.152. With RRIRYRPPRLPRPRPRPACRPRP the “shrunken log2 fold change” value was -0.077. In the case of RRIRYRPPRLPRPRPRPACVPRP, the “shrunken log2 fold change” value is reported as -0.351. For RRIRYRPPRLPRPRPRPAGKPRP, the “shrunken log2 fold change” value was -0.237. For RRIRYRPPRLPRPRPRPAGRPRP, the “shrunken log2 fold change” value was 0.104. RRIRYRPPRLPRPRPRPAHCPRP was tested, and the “shrunken log2 fold change” value was 0.0564. With RRIRYRPPRLPRPRPRPAILPRP the “shrunken log2 fold change” value was -0.402. RRIRYRPPRLPRPRPRPAIVPRP was tested, and the “shrunken log2 fold change” value was -0.0768. For RRIRYRPPRLPRPRPRPAKQPRP, the “shrunken log2 fold change” value was -0.168. In the case of RRIRYRPPRLPRPRPRPALFPRP, the “shrunken log2 fold change” value is reported as -0.0533. With RRIRYRPPRLPRPRPRPALKPRP the “shrunken log2 fold change” value was 0.0554. In the case of RRIRYRPPRLPRPRPRPALTPRP, the “shrunken log2 fold change” value is reported as -0.044. In the case of RRIRYRPPRLPRPRPRPAMKPRP, the “shrunken log2 fold change” value is reported as -0.000923. RRIRYRPPRLPRPRPRPARDPRP was tested, and the “shrunken log2 fold change” value was 0.197. In the case of RRIRYRPPRLPRPRPRPATHPRP, the “shrunken log2 fold change” value is reported as -0.318. With RRIRYRPPRLPRPRPRPAWEPRP the “shrunken log2 fold change” value was 1.86. With RRIRYRPPRLPRPRPRPAYCPRP the “shrunken log2 fold change” value was -0.0229. With RRIRYRPPRLPRPRPRPAYLPRP the “shrunken log2 fold change” value was -0.244. With RRIRYRPPRLPRPRPRPCAEPRP the “shrunken log2 fold change” value was -0.835. In the case of RRIRYRPPRLPRPRPRPCAHPRP, the “shrunken log2 fold change” value is reported as -0.0966. For RRIRYRPPRLPRPRPRPCAQPRP, the “shrunken log2 fold change” value was -0.00639. With RRIRYRPPRLPRPRPRPCCHPRP the “shrunken log2 fold change” value was -1.36. RRIRYRPPRLPRPRPRPCCPPRP was tested, and the “shrunken log2 fold change” value was -0.38. RRIRYRPPRLPRPRPRPCFCPRP was tested, and the “shrunken log2 fold change” value was -0.565. For RRIRYRPPRLPRPRPRPCFHPRP, the “shrunken log2 fold change” value was -1.42. For RRIRYRPPRLPRPRPRPCHCPRP, the “shrunken log2 fold change” value was -0.0269. For RRIRYRPPRLPRPRPRPCHHPRP, the “shrunken log2 fold change” value was -0.12. With RRIRYRPPRLPRPRPRPCIRPRP the “shrunken log2 fold change” value was -0.023. RRIRYRPPRLPRPRPRPCKDPRP was tested, and the “shrunken log2 fold change” value was -1.14. In the case of RRIRYRPPRLPRPRPRPCNTPRP, the “shrunken log2 fold change” value is reported as -0.425. For RRIRYRPPRLPRPRPRPCPPPRP, the “shrunken log2 fold change” value was -0.839. For RRIRYRPPRLPRPRPRPCQPPRP, the “shrunken log2 fold change” value was -0.354. With RRIRYRPPRLPRPRPRPCQVPRP the “shrunken log2 fold change” value was -0.116. In the case of RRIRYRPPRLPRPRPRPCTKPRP, the “shrunken log2 fold change” value is reported as -1.15. For RRIRYRPPRLPRPRPRPCTVPRP, the “shrunken log2 fold change” value was -0.0835. For RRIRYRPPRLPRPRPRPCVEPRP, the “shrunken log2 fold change” value was -0.0115. With RRIRYRPPRLPRPRPRPCVFPRP the “shrunken log2 fold change” value was -0.123. RRIRYRPPRLPRPRPRPCVNPRP was tested, and the “shrunken log2 fold change” value was -0.177. RRIRYRPPRLPRPRPRPCWLPRP was tested, and the “shrunken log2 fold change” value was 0.0283. With RRIRYRPPRLPRPRPRPCYIPRP the “shrunken log2 fold change” value was -0.189. With RRIRYRPPRLPRPRPRPDAHPRP the “shrunken log2 fold change” value was -0.0156. With RRIRYRPPRLPRPRPRPDAYPRP the “shrunken log2 fold change” value was -0.599. In the case of RRIRYRPPRLPRPRPRPDCDPRP, the “shrunken log2 fold change” value is reported as -0.124. With RRIRYRPPRLPRPRPRPDDQPRP the “shrunken log2 fold change” value was -0.0136. RRIRYRPPRLPRPRPRPDDTPRP was tested, and the “shrunken log2 fold change” value was -0.876. For RRIRYRPPRLPRPRPRPDDVPRP, the “shrunken log2 fold change” value was 0.0235. RRIRYRPPRLPRPRPRPDEHPRP was tested, and the “shrunken log2 fold change” value was -0.0204. With RRIRYRPPRLPRPRPRPDEMPRP the “shrunken log2 fold change” value was 0.0412. RRIRYRPPRLPRPRPRPDFKPRP was tested, and the “shrunken log2 fold change” value was -0.261. In the case of RRIRYRPPRLPRPRPRPDFLPRP, the “shrunken log2 fold change” value is reported as -0.542. RRIRYRPPRLPRPRPRPDFPPRP was tested, and the “shrunken log2 fold change” value was -0.48. RRIRYRPPRLPRPRPRPDHFPRP was tested, and the “shrunken log2 fold change” value was 0.00911. For RRIRYRPPRLPRPRPRPDKLPRP, the “shrunken log2 fold change” value was -0.0621. In the case of RRIRYRPPRLPRPRPRPDNAPRP, the “shrunken log2 fold change” value is reported as -0.0635. RRIRYRPPRLPRPRPRPDQTPRP was tested, and the “shrunken log2 fold change” value was 0.00902. In the case of RRIRYRPPRLPRPRPRPDSVPRP, the “shrunken log2 fold change” value is reported as -0.338. For RRIRYRPPRLPRPRPRPDTNPRP, the “shrunken log2 fold change” value was -0.0185. With RRIRYRPPRLPRPRPRPDWLPRP the “shrunken log2 fold change” value was -0.0748. For RRIRYRPPRLPRPRPRPDWSPRP, the “shrunken log2 fold change” value was -0.522. With RRIRYRPPRLPRPRPRPDWTPRP the “shrunken log2 fold change” value was 0.0173. With RRIRYRPPRLPRPRPRPDYEPRP the “shrunken log2 fold change” value was -0.105. RRIRYRPPRLPRPRPRPDYGPRP was tested, and the “shrunken log2 fold change” value was -0.205. For RRIRYRPPRLPRPRPRPDYKPRP, the “shrunken log2 fold change” value was -0.136. In the case of RRIRYRPPRLPRPRPRPDYSPRP, the “shrunken log2 fold change” value is reported as -0.245. For RRIRYRPPRLPRPRPRPECNPRP, the “shrunken log2 fold change” value was -0.0877. For RRIRYRPPRLPRPRPRPEDTPRP, the “shrunken log2 fold change” value was -0.00443. With RRIRYRPPRLPRPRPRPEEDPRP the “shrunken log2 fold change” value was -0.0024. For RRIRYRPPRLPRPRPRPEEHPRP, the “shrunken log2 fold change” value was 0.0203. RRIRYRPPRLPRPRPRPEICPRP was tested, and the “shrunken log2 fold change” value was 0.0682. With RRIRYRPPRLPRPRPRPEIGPRP the “shrunken log2 fold change” value was 0.066. In the case of RRIRYRPPRLPRPRPRPEKDPRP, the “shrunken log2 fold change” value is reported as 0.0236. With RRIRYRPPRLPRPRPRPEKQPRP the “shrunken log2 fold change” value was -0.000925. In the case of RRIRYRPPRLPRPRPRPELAPRP, the “shrunken log2 fold change” value is reported as -0.0264. In the case of RRIRYRPPRLPRPRPRPELEPRP, the “shrunken log2 fold change” value is reported as 0.0858. In the case of RRIRYRPPRLPRPRPRPELPPRP, the “shrunken log2 fold change” value is reported as 0.0248. RRIRYRPPRLPRPRPRPEMLPRP was tested, and the “shrunken log2 fold change” value was -0.0664. RRIRYRPPRLPRPRPRPEQYPRP was tested, and the “shrunken log2 fold change” value was -0.0207. RRIRYRPPRLPRPRPRPERCPRP was tested, and the “shrunken log2 fold change” value was -0.12. RRIRYRPPRLPRPRPRPETNPRP was tested, and the “shrunken log2 fold change” value was 0.0266.
